Measured values as given in the supplement of paper PMC11246515.
± gives the standard deviation of the averaged measurements.

Assay: total protein half-life in vivo (active degradation + dilution); higher = more stable protein
[1] = E. coli NCM3722 delta-clpP delta-lon delta-hslV, growth: N-lim chemostat, doubling time 6 h
[2] = E. coli NCM3722 delta-clpP, growth: N-lim chemostat, doubling time 6 h
[3] = E. coli NCM3722 delta-hslV, growth: N-lim chemostat, doubling time 6 h
[4] = E. coli NCM3722 delta-lon, growth: N-lim chemostat, doubling time 6 h
[5] = E. coli NCM3722 delta-smpB, growth: N-lim chemostat, doubling time 6 h
[6] = wild type E. coli NCM3722, growth: C-lim chemostat, doubling time 3 h
[7] = wild type E. coli NCM3722, growth: C-lim chemostat, doubling time 6 h
[8] = wild type E. coli NCM3722, growth: C-lim chemostat, doubling time 12 h
[9] = wild type E. coli NCM3722, growth: N-lim chemostat, doubling time 6 h
[10] = wild type E. coli NCM3722, growth: N-lim chemostat, doubling time 12 h
[11] = wild type E. coli NCM3722, growth: P-lim chemostat, doubling time 6 h
[12] = wild type E. coli NCM3722, growth: P-lim chemostat, doubling time 12 h

Sequence | total protein half-life in vivo [1] [h] | total protein half-life in vivo [2] [h] | total protein half-life in vivo [3] [h] | total protein half-life in vivo [4] [h] | total protein half-life in vivo [5] [h] | total protein half-life in vivo [6] [h] | total protein half-life in vivo [7] [h] | total protein half-life in vivo [8] [h] | total protein half-life in vivo [9] [h] | total protein half-life in vivo [10] [h] | total protein half-life in vivo [11] [h] | total protein half-life in vivo [12] [h]
MSVIIVGGGMAGATLALAISRLSHGALPVHLIEATAPESHAHPGFDGRAIALAAGTCQQLARIGVWQSLADCATAITTVHVSDRGHAGFVTLAAEDYQLAALGQVVELHNVGQRLFALLRKAPGVTLHCPDRVANVARTQSHVEVTLESGETLTGRVLVAADGTHSALATACGVDWQQEPYEQLAVIANVATSVAHEGRAFERFTQHGPLAMLPMSDGRCSLVWCHPLERREEVLSWSDEKFCRELQSAFGWRLGKITHAGKRSAYPLALTHAARSITHRTVLVGNAAQTLHPIAGQGFNLGMRDVMSLAETLTQAQERGEDMGDYGVLCRYQQRRQSDREATIGVTDSLVHLFANRWAPLVVGRNIGLMTMELFTPARDVLAQRTLGWVAR | 5.61 ± 0.23 | 4.77 ± 0.24 | 6.05 ± 2.4 | 3.69 ± 0.053 | 4.23 ± 0.17 | 2.72 ± 0.17 | 4.42 ± 0.18 | 6.83 ± 0.21 | 4.24 ± 1.1 | 9.5 | 2.82 ± 0.096 | 4.59 ± 0.42
MRGKILLYQLKYRWQSLSIFGCFLCKMTLFRYQKIIYDTGVHQMRSFFYTICSSEQQESITDHHSLAEICQKFNILPEHVVIEQVDIKEVVSEQRLLRQLIHHEMNRQDTLVIPDLSCLGRTVEDLQNILFFCLQKEMFIYSYHPASRIEPSAESCLSFLIARQDTIDIHNLKSTKSRYRHVKKKLGRKEGSKYRRDITILKKGGFTQAEIAKKLSISLSTVKRHWNNGIIG | 6.03 |  |  |  |  |  |  |  |  |  |  | 
MAKNYAALARSVIAALGGVDNISAVTHCMTRLRFVIKDDALIDSPTLKTIPGVLGVVRSDNQCQVIIGNTVSQAFQEVVSLLPGDMQPAQPVGKPKLTLRRIGAGILDALIGTMSPLIPAIIGGSMVKLLAMILEMSGVLTKGSPTLTILNVIGDGAFFFLPLMVAASAAIKFKTNMSLAIAIAGVLVHPSFIELMAKAAQGEHVEFALIPVTAVKYTYTVIPALVMTWCLSYIERWVDSITPAVTKNFLKPMLIVLIAAPLAILLIGPIGIWIGSAISALVYTIHGYLGWLSVAIMGALWPLLVMTGMHRVFTPTIIQTIAETGKEGMVMPSEIGANLSLGGSSLAVAWKTKNPELRQTALAAAASAIMAGISEPALYGVAIRLKRPLIASLISGFICGAVAGMAGLASHSMAAPGLFTSVQFFDPANPMSIVWVFAVMALAVVLSFILTLLLGFEDIPVEEAAAQARKYQSVQPTVAKEVSLN |  |  |  |  |  | 1.77 ± 0.078 |  | 3.55 |  |  |  | 
MSETKNELEDLLEKAATEPAHRPAFFRTLLESTVWVPGTAAQGEAVVEDSALDLQHWEKEDGTSVIPFFTSLEALQQAVEDEQAFVVMPVRTLFEMTLGETLFLNAKLPTGKEFMPREISLLIGEEGNPLSSQEILEGGESLILSEVAEPPAQMIDSLTTLFKTIKPVKRAFICSIKENEEAQPNLLIGIEADGDIEEIIQATGSVATDTLPGDEPIDICQVKKGEKGISHFITEHIAPFYERRWGGFLRDFKQNRII [P0AFZ1] | 3.64 | 3.49 ± 0.42 | 2.73 | 3.96 ± 0.78 | 2.39 ± 0.091 | 2.44 | 4.53 ± 0.38 | 6.76 ± 0.27 | 2.81 | 4.38 | 3.65 | 7.61
MNAVTVNDDGLVLRLYIQPKASRDSIVGLHGDEVKVAITAPPVDGQANSHLVKFLGKQFRVAKSQVVIEKGELGRHKQIKIINPQQIPPEIAALIN | 5.38 ± 0.38 | 4 ± 0.27 | 4.49 | 5.14 | 4.22 | 2.88 ± 0.76 | 5.35 | 8.02 | 3.58 | 6.29 ± 0.45 | 4.68 ± 0.4 | 8.89 ± 0.44
MMNDSFCRIIAGEIQARPEQVDAAVRLLDEGNTVPFIARYRKEITGGLDDTQLRNLETRLSYLRELEERRQAILKSISEQGKLTDDLAKAINATLSKTELEDLYLPYKPKRRTRGQIAIEAGLEPLADLLWSDPSHTPEVAAAQYVYADKGVADTKAALDGARYILMERFAEDAALLAKVRDYLWKNAHLVSTVVSGKEEEGAKFRDYFDHHEPLSTVPSHRALAMFRGRNEGVLQLSLNADPQFDEPPKESYCEQIIMDHLGLRLNNAPADSWRKGVVSWTWRIKVLMHLETELMGTVRERAEDEAINVFARNLHDLLMAAPAGLRATMGLDPGLRTGVKVAVVDATGKLVATDTIYPHTGQAAKAAMTVAALCEKHNVELVAIGNGTASRETERFYLDVQKQFPKVTAQKVIVSEAGASVYSASELAAQEFPDLDVSLRGAVSIARRLQDPLAELVKIDPKSIGVGQYQHDVSQTQLARKLDAVVEDCVNAVGVDLNTASVPLLTRVAGLTRMMAQNIVAWRDENGQFQNRQQLLKVSRLGPKAFEQCAGFLRINHGDNPLDASTVHPEAYPVVERILAATQQALKDLMGNSSELRNLKASDFTDEKFGVPTVTDIIKELEKPGRDPRPEFKTAQFADGVETMNDLQPGMILEGAVTNVTNFGAFVDIGVHQDGLVHISSLSNKFVEDPHTVVKAGDIVKVKVLEVDLQRKRIALTMRLDEQPGETNARRGGGNERPQNNRPAAKPRGREAQPAGNSAMMDALAAAMGKKR | 5.48 ± 0.19 | 4.8 ± 0.3 | 3.58 ± 0.041 | 4.124 ± 0.019 | 3.26 ± 0.074 | 2.49 ± 0.14 | 4.69 ± 0.19 | 7.55 ± 0.32 | 3.63 ± 0.087 | 5.457 ± 0.049 | 3.88 ± 0.065 | 6.81 ± 0.56
